The results in this text go back to the nanobody polyreactivity screen of Harvey et al. (2022).

This data set can be described thus: yeast display, Sf9 membrane polyspecificity reagent, FACS + sequencing; frameworks hold sequencing errors. Put shortly: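 Galactose-induced (36–48 hours) yeast carrying a synthetic nanobody display library were exposed to 10% biotinylated, detergent-solubilized Sf9 membrane reagent at 4 °C for 1 hour. FACS followed streptavidin microbead enrichment, using low and high (top ~1%) gates for expression (anti-HA) and reagent binding (streptavidin). Colony PCR, MiSeq 2 × 250 sequencing and CDR-length filtering followed. Labels for polyreactivity reflect the gate of origin.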
“QVQLVESGGGLVQAGGSLRLSCAASGRIFGPNDMGWYRQAPGKDRELVAAISWSGSSTRYADSVKGRFTISRDNAKNTVYLQMNSLKPEDTAGYYCAADRYWHSVVRDEDYWGQGTQVTVSS”: the “polyreactivity (PSR sort gate)” value is listed as “low polyreactivity”.
As to “QVQLVESGGGLVQAGGSLRLSCAASGRIFGPNDMGWYRQAPGKERELVAAITDSGDITYYADSVKGRFTISRDIAKNSVYLQMNSLKPEDTAVYYCAADHTYENEYWGQGTQVTVSS”, the “polyreactivity (PSR sort gate)” value is recorded as “low polyreactivity”.
Regarding “QVQLVESGGGLVQAGGSLRLSCAASGRIFGPYAMGWYRQAPGKERELVAAIRASSSSTYYADSVKGRFTISRDNAKNTVYVQMNSLKPEDTAVYYCAADWYYGYAWKYGYWGQGTQVTVSS”, the “polyreactivity (PSR sort gate)” value was “low polyreactivity”.
For the sequence “QVQLVESGGGLVQAGGSLRLSCAASGRIFGPYAMGWYRQAPGKERELVAAISGRGSSTYYADSVKGRFTLSRDNAKNTVYLQMNSLKPEDTAVYYCAKYPTYSYDYWGQGTQVTVSS”, the “polyreactivity (PSR sort gate)” value is “high polyreactivity”.
Regarding “QVQLVESGGGLVQAGGSLRLSCAASGRIFGPYAMGWYRQAPGKERELVASISYSRGSTYYADSVKGRFTISRDNANNTVYLQMNSLKPEDTAVYYCAKGGYWRGYNYWGQGSQVTVSS”, the “polyreactivity (PSR sort gate)” value was “low polyreactivity”.
For “QVQLVESGGGLVQAGGSLRLSCAASGRIFGPYTMGWYRQEPGKERELVAAITGRVVSTYYADSVKGRFTISRDNAKNTVYLQMNSLQPEDTAVYYCAARIYYYNTRGDYWAQGTQVTVSS” the value was “high polyreactivity”; for “QVQLVESGGGLVQAGGSLRLSCAASGRIFGPYVMGWYRQAPGKERELVAAISTSGTSTYYADSVKGRFTISRDNAKNTVYLQMNSLKPEDTAVYDCGIRSGARHRLMDYWGQGTQVTVSS”, “low polyreactivity”.
For “QVQLVESGGGLVQAGGSLRLSCAASGRIFGQNAMGWYRQAPGKERELVAAITGSGGRTYYADSVKGRFTISRDNAKNTVYLQMNSQKPEDTAVYYCAVRVTSYYRTMDYWGQGTQVTVSS” the value was “low polyreactivity”; for “QVQLVESGGGLVQAGGSLRLSCAASGRIFGQYAMAWYRHAPGKERELVAAITQRGGSTYYADSVKGRFTISRDNAKNTVYLQMNSLKPEDTAGYYCNKRYRFTGIRDPFDYWGQGTQVTVSS”, “low polyreactivity”.
For “QVQLVESGGGLVQAGGSLRLSCAASGRIFGQYAMGWYRQAPGKERELVAAISWRGGTTYYADSVKGRFTISRDNAKNTVYLQMNSLKPEDTAVYYCNADVWVYPYDYWGQGTQVTVSS” the value was “low polyreactivity”.
Consider “QVQLVESGGGLVQAGGSLRLSCAASGRIFGRNAMAWYRQAPGKERELVAAISTSGGTYYADSVKGRFTISRDNAKNTVYLQMISLKPEDTAVYYCNDRGRTQQRWVDYWGQRTQVTVSS”, for which the “polyreactivity (PSR sort gate)” value was “high polyreactivity”.
For “QVQLVESGGGLVQAGGSLRLSCAASGRIFGRNAMGWYRQAPGKERELVAAITYSGGRTYYADSVKGRFTISRDNAKNTVYLQMNSLKPEDTAVYYCAAYSFAYRYNYWGQGTQVTVSS”, the “polyreactivity (PSR sort gate)” value is on record as “high polyreactivity”.
Consider “QVQLVESGGGLVQAGGSLRLSCAASGRIFGRNTMGWYRQAPGKEREFVAAITWSGGSTYYADSVKGRFTISRDNAKNTVYLQMNSLKPEDTAVYYCAAPSYYRYDYWGQGTQVTVSS”, for which the “polyreactivity (PSR sort gate)” value is reported as “high polyreactivity”.
For “QVQLVESGGGLVQAGGSLRLSCAASGRIFGRYAMGWYRQAPGKERELVAAITSGGRTSYADSVKGRFTISRDNAKNTVYLQMNSLKPEDTSVYYCNVVSRNSIRFDYWGQGTQVTVSS” the value was “high polyreactivity”; for “QVQLVESGGGLVQAGGSLRLSCAASGRIFGRYAMGWYRQAPGKERELVAAITSSGRTYYADSVKGRFTISRDNAKNTVYLQMNSLKPEDTAVYYCNAVARYTKYNYWGQGTQVTVSS”, “high polyreactivity”; for “QVQLVESGGGLVQAGGSLRLSCAASGRIFGRYAMGWYRQAPGKERELVASITYRGGGTYYADSVKGRFTISRDNAKNTVYLQMNSLKAEDTAVYYCAAALSNVRNVRSPYDYWGQGTQVTVSS”, “high polyreactivity”.
For “QVQLVESGGGLVQAGGSLRLSCAASGRIFGRYVMGWYRQAPGKERELVAAITSGGSTYYADSVKGRFTISRDNAKNTVYLQMNSLKPEDTAVYYCATRLFYPRFYYWGQGTQVTVSS” the value was “high polyreactivity”.
